Measured values as given in article PMC7824358, “The Influence of the Mixed DPC:SDS Micelle on the Structure and Oligomerization Process of the Human Cystatin C” (Membranes, 2020).

Experiments:
[1] = molecular target: human cystatin C V57P variant (human) (UniProt P01034); test: SEC; analytical gel filtration, Superdex 75 PC 3.2/30, eluted with PBS; protein 30 μM in PBS incubated 24 h at 22 °C with dilution series of DPC:SDS (5:1) mixed micelle, DPC or SDS; dimer retention ca. 13.5 min, monomer ca. 16 min; dimer to monomers
[2] = molecular target: the molecule itself; test: SEC; hCC WT incubated 24 h in 25 mM sodium acetate buffer pH 4.0, 150 mM NaCl, 1 mM benzamidine hydrochloride; dimer separated from monomer on Superdex 75 10/300 GL; monomer to dimer

## human cystatin C V57P variant (from UniProt P01034 27-146) (natural protein)
[1]
  stoichiometry N: 2

B1: human cystatin C (hCC) wild-type (natural protein, UniProt P01034 27-146, looked up)
chain: SSPGKPPRLVGGPMDASVEEEGVRRALDFAVGEYNKASNDMYHSRALQVVRARKQIVAGVNYFLDVELGRTTCTKTQPNLDNCPFHDQPHLKRKAFCSFQIYAVPWQGTMTLSKSTCQDA
notes: human cystatin C, expressed from the pHD313 vector behind the E. coli OmpA signal peptide; Used as a monomer sample and as a dimer sample made by incubation at pH 4.0 and separated by SEC; also called hCC WT; WT
[2]
  stoichiometry N: 2
